{"source": "patent EP0647275B2", "about": "(Mount Sinai School of Medicine, priority 1992, dated 1994)", "key": {"mouse GnRH-R [1]": {"molecular_target": "T1, mouse GnRH-R (Mus musculus, UniProt Q01776)", "T1 construct": "The longest open reading frame encodes a 327 amino acid protein; expressed in transfected cells; host or cells: Xenopus laevis oocytes injected with capped synthetic WZ25 RNA transcript", "T1 sequence (Q01776 1-327)": "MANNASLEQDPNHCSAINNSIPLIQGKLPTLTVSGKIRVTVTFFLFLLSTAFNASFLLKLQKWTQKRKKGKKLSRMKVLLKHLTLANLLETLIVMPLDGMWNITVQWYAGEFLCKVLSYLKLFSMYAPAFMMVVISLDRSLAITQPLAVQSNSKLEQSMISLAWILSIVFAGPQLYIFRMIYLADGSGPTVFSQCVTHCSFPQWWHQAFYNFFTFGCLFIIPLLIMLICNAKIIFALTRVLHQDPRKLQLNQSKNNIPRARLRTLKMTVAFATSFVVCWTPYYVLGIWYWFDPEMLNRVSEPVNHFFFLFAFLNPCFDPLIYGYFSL", "experiment": "Electrophysiological response of Xenopus oocytes injected with WZ25 RNA transcript (two-electrode voltage clamp)", "type": "cell-based", "details": "for response of RNA-injected oocytes to agonist: buserelin 100 nM", "protocol": "Adult female Xenopus laevis (Nasco, Ft. Atkinson, WI) were kept at 18-20°C and a day/night cycle of 15h/9h. […] Peptide ligands were diluted in the perfusion buffer and introduced into the bath. The clamp current was recorded using a chart recorder. Reversal potentials were determined by continuous ramping from -70 to +10 mV over 2 seconds with and without agonist through an IBM PC/AT system using the TL-1 interface and pCLAMP software from Axon Instruments (Burlingame, CA).\nWZ25 in pBluescript II SK+ (Stratagene) was linearized and capped RNA transcript synthesized using T3 RNA polymerase (Stratagene)."}, "human GnRHR [2]": {"molecular_target": "T2, human GnRHR (Homo sapiens, UniProt P30968)", "T2 construct": "The human GnRH-R cDNA was subcloned into an expression vector, pSV2A, containing an SV40 early promoter; expressed in transfected cells; host or cells: COS-1 cells, transient DEAE-dextran transfection with pSV2A-human GnRH-R", "T2 sequence (P30968 1-328)": "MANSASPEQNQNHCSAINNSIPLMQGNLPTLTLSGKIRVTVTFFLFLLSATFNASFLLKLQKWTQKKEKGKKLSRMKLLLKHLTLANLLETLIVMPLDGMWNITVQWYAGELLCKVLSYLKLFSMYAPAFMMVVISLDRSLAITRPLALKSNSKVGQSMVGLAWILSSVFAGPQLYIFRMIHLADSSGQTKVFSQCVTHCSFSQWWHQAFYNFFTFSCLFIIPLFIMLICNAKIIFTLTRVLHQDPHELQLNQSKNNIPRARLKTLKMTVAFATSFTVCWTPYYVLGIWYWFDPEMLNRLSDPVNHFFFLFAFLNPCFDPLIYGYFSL", "experiment": "Electrophysiological response of Xenopus oocytes injected with LC27-4 RNA transcript", "type": "cell-based", "details": "2 x 10^-7 M agonist; LC27-4 RNA-injected oocytes", "protocol": "Construct LC27-4 was linearized and capped RNA transcript synthesized using T3 RNA polymerase. Oocyte preparation and electrophysiology were performed as previously described (Sealfon et al., 1990, Mol. Endocrinol. 4:119-124). Cells were injected with 1-10 ng of synthetic transcript and electrophysiology recorded via two-electrode voltage clamp 48 hours later. All agonists and antagonists were applied at a concentration of 0.2 µM."}, "[3]": {"molecular_target": "mouse gonadotropin-releasing hormone receptor (GnRH-R), clone WZ25 (mouse)", "experiment": "cell-based or functional assay"}, "[4]": {"molecular_target": "human gonadotropin-releasing hormone receptor (GnRH-R), clone LC27-4 (human)", "experiment": "cell-based or functional assay"}, "human GnRHR [5]": {"molecular_target": "T2, human GnRHR", "experiment": "125I-GnRH-A receptor binding, membranes of COS-1 cells transfected with pSV2A-human GnRH-R", "details": "membranes from transfected COS-1 cells; read-out: dissociation constant, displacement of GnRH-A"}, "GnRH-R": {"molecular_target": "T3, GnRH-R (Mus musculus, UniProt Q01776)", "T3 construct": "similar Kds of 4.5 and 2.9 nM in WZ25 RNA-injected oocyte membranes and αT3-1 cell membranes respectively; endogenous in cells; host or cells: αT3-1 mouse gonadotrope cell membranes, combined with membranes from uninjected oocytes", "T3 sequence (Q01776 1-327)": "T1 sequence (Q01776 1-327)", "experiment": "125I-GnRH-A radioligand binding assay, αT3-1 cell membranes", "details": "read-out: Kd, displacement of 125I-GnRH-A"}, "mouse GnRH-R [6]": {"molecular_target": "T1, mouse GnRH-R", "experiment": "125I-GnRH-A radioligand binding assay, membranes of WZ25 RNA-injected oocytes", "details": "WZ25 RNA-injected oocyte membranes; read-out: Kd, displacement of 125I-GnRH-A", "protocol": "For membrane preparation, 500 oocytes were each injected with 2.5 ng synthetic WZ25 RNA."}, "human GnRHR [7]": {"molecular_target": "T2, human GnRHR", "experiment": "Inositol phosphate production in COS-1 cells transfected with pSV2A-human GnRH-R", "type": "cell-based", "details": "GnRH 10^-8 M; read-out: IC50, inhibition of GnRH-stimulated inositol phosphate production", "protocol": "For studies on inositol phosphate production, 1.8 x 10^5 cells/well (12-well plates) were transfected with 1.5 µg DNA. Cells were assayed 48 hours after transfection.\nAccumulation of [^3H]IP in the presence of LiCl was used as an index of inositol phosphate turnover. […] The reaction was terminated by the addition of a perchloric acid solution and phytic acid. After neutralizing with KOH, the inositol phosphates were separated on a Dowex ion exchange column and counted."}, "[8]": {"molecular_target": "mouse gonadotropin-releasing hormone receptor (GnRH-R), clone WZ25 (mouse)", "experiment": "displacement of 125I-GnRH-A by GnRH-A, alphaT3-1 cell membranes (endogenous mouse receptor)"}, "[9]": {"molecular_target": "mouse gonadotropin-releasing hormone receptor (GnRH-R), clone WZ25 (mouse)", "experiment": "displacement of 125I-GnRH-A by GnRH-A, membranes of WZ25 RNA-injected oocytes"}, "[10]": {"molecular_target": "human gonadotropin-releasing hormone receptor (GnRH-R), clone LC27-4 (human)", "experiment": "displacement of 125I-GnRH-A, membranes of COS-1 cells transfected with human GnRH-R"}, "[11]": {"molecular_target": "mouse gonadotropin-releasing hormone receptor (GnRH-R), clone WZ25 (mouse)", "experiment": "radioligand binding of 125I-GnRH-A to membranes of WZ25 RNA-injected oocytes; non-specific binding with 10^-6 M GnRH analogue was 662 cpm"}, "[12]": {"molecular_target": "human gonadotropin-releasing hormone receptor (GnRH-R), clone LC27-4 (human)", "experiment": "calculated from the IC50 of inhibition of GnRH-stimulated inositol phosphate production in COS-1 cells transfected with human GnRH-R"}}, "note": "Non-standard residues stand in square brackets, D forms with d. Residues, ends and D or L forms follow the SMILES beside them. d(pGlu) = O=C1CC[C@H](C(=O)O)N1; pGlu = O=C1CC[C@@H](C(=O)O)N1", "data": [{"compound": "D-Ser(But)^6,Pro^9-N-ethylamide GnRH [buserelin]", "values": [{"measurement": "response of RNA-injected oocytes to agonist", "setting": "mouse GnRH-R [1]; WZ25 RNA-injected oocytes", "value": "elicited a depolarizing current"}, {"measurement": "response of RNA-injected oocytes to agonist", "setting": "human GnRHR [2]", "value": "large depolarizing currents"}]}, {"compound": "CC(C)C[C@H](NC(=O)CNC(=O)[C@H](Cc1ccc(O)cc1)NC(=O)[C@H](CO)NC(=O)[C@H](Cc1c[nH]c2ccccc12)NC(=O)[C@H](Cc1cnc[nH]1)NC(=O)[C@@H]1CCC(=O)N1)C(=O)N[C@@H](CCCNC(=N)N)C(=O)N1CCC[C@H]1C(=O)NCC(N)=O", "note": "[GnRH, gonadotropin-releasing hormone]", "values": [{"measurement": "response of RNA-injected oocytes to agonist", "setting": "mouse GnRH-R [1]; WZ25 RNA-injected oocytes", "value": "large depolarizing response"}, {"measurement": "response to GnRH alone", "setting": "mouse GnRH-R [1]; WZ25 RNA-injected oocytes, n=4", "value": "4756±1082", "unit": "nA"}, {"measurement": "Vr of the current elicited by GnRH", "setting": "mouse GnRH-R [1]; oocytes injected with WZ25 RNA transcript, n=7", "value": "-27±0.79", "unit": "mV"}, {"measurement": "response of RNA-injected oocytes to agonist", "setting": "human GnRHR [2]", "value": "large depolarizing currents"}]}, {"compound": "gonadotropin-releasing hormone (GnRH) (from UniProt P01148 24-92) (peptide)", "values": [{"measurement": "response to GnRH alone (clamp current) in WZ25 RNA-injected oocytes", "setting": "[3]", "value": 4760, "unit": "nA"}, {"measurement": "EC50 of inositol phosphate production, COS-1 cells transfected with human GnRH-R", "setting": "[4]", "value": 3, "unit": "nM"}, {"measurement": "increase in phosphoinositol metabolism at maximal receptor stimulation, COS-1 cells transfected with human GnRH-R", "setting": "[4]", "value": 8, "unit": "fold"}]}, {"compound": "GnRH antagonist [D-Phe^2.6,Pro^3]-GnRH (from UniProt P01148 24-92) (peptide)", "values": [{"measurement": "reduction in the response to GnRH in the presence of equimolar antagonist, WZ25 RNA-injected oocytes", "setting": "[3]", "value": 60, "unit": "%"}, {"measurement": "response to GnRH (clamp current) in the presence of equimolar antagonist, WZ25 RNA-injected oocytes", "setting": "[3]", "value": 1880, "unit": "nA"}]}, {"compound": "CCNC(=O)[C@@H]1CCCN1C(=O)[C@H](CCCNC(=N)N)NC(=O)[C@H](CC(C)C)N(C)C(=O)[C@@H](C)NC(=O)[C@H](Cc1ccc(O)cc1)NC(=O)[C@H](CO)NC(=O)[C@H](Cc1c[nH]c2ccccc12)NC(=O)[C@H](Cc1cnc[nH]1)NC(=O)[C@@H]1CCC(=O)N1", "note": "[GnRH-A, [D-Ala^6, NaMe-Leu^7, Pro^9-NHEt]GnRH]", "values": [{"measurement": "Kd", "setting": "human GnRHR [5]", "value": 0.97, "unit": "nM"}, {"measurement": "Kd", "setting": "GnRH-R", "value": 2.9, "unit": "nM"}, {"measurement": "Kd", "setting": "mouse GnRH-R [6]", "value": 4.5, "unit": "nM"}]}, {"compound": "CC(C)C[C@H](NC(=O)[C@@H](Cc1c[nH]c2ccccc12)NC(=O)[C@H](Cc1ccc(O)cc1)NC(=O)[C@H](CO)NC(=O)[C@@H](Cc1c[nH]c2ccccc12)NC(=O)[C@@H](Cc1ccccc1)NC(=O)[C@H]1CCC(=O)N1)C(=O)N[C@@H](CCCNC(=N)N)C(=O)N1CCC[C@H]1C(=O)NCC(N)=O", "note": "[antagonist 5, [D-pGlu^1,D-Phe^2,D-Trp^3,6]GnRH] ([d(pGlu)][dF][dW]SY[dW]LRPG-NH2)", "values": [{"measurement": "Kd", "setting": "human GnRHR [5]", "value": 8.4, "unit": "nM"}, {"measurement": "IC50", "setting": "human GnRHR [7]", "value": 105, "unit": "nM"}]}, {"compound": "[D-Ala^6, NaMe-Leu^7, Pro^9-NHEt]GnRH (GnRH-A) (from UniProt P01148 24-92) (peptide)", "values": [{"measurement": "Kd", "setting": "[8]", "value": 2.9, "unit": "nM"}, {"measurement": "Kd", "setting": "[9]", "value": 4.5, "unit": "nM"}, {"measurement": "Kd", "setting": "[10]", "value": 0.97, "unit": "nM"}, {"measurement": "Bo (maximal binding)", "setting": "[11]", "value": 1430, "unit": "cpm"}]}, {"compound": "antagonist 5: [D-pGlu^1,D-Phe^2,D-Trp^3,6]GnRH (from UniProt P01148 24-92) (peptide)", "values": [{"measurement": "Kd", "setting": "[12]", "value": 3.6, "unit": "nM"}, {"measurement": "IC50 of inhibition of GnRH-stimulated (10^-8 M) inositol phosphate production, transfected COS-1 cells", "setting": "[4]", "value": 105, "unit": "nM"}, {"measurement": "Kd", "setting": "[10]", "value": 8.4, "unit": "nM"}]}, {"compound": "antagonist 13: [Ac-D-NaI^1,D-α-4-ClPhe^2,D-Pal^3,D-Arg^6, D-Ala^10]GnRH (from UniProt P01148 24-92) (peptide)", "values": [{"measurement": "Kd", "setting": "[12]", "value": 0.21, "unit": "nM"}, {"measurement": "IC50 of inhibition of GnRH-stimulated (10^-8 M) inositol phosphate production, transfected COS-1 cells", "setting": "[4]", "value": 6.7, "unit": "nM"}]}, {"compound": "CC(C)C[C@H](NC(=O)[C@@H](Cc1ccccc1)NC(=O)[C@H](Cc1ccc(O)cc1)NC(=O)[C@H](CO)NC(=O)[C@@H]1CCCN1C(=O)[C@@H](Cc1ccccc1)NC(=O)[C@@H]1CCC(=O)N1)C(=O)N[C@@H](CCCNC(=N)N)C(=O)N1CCC[C@H]1C(=O)NCC(N)=O", "note": "[[D-Phe^2.6, Pro^3]GnRH, [D-Phe^2.6,Pro^3]-GnRH] ([pGlu][dF]PSY[dF]LRPG-NH2)", "values": [{"measurement": "response to GnRH in the presence of equimolar antagonist", "setting": "mouse GnRH-R [1]; WZ25 RNA-injected oocytes, n=5", "value": "1880±551", "unit": "nA"}, {"measurement": "reduction in the response to GnRH", "setting": "mouse GnRH-R [1]; equimolar antagonist, in comparison with the response to GnRH alone", "value": 60, "unit": "%"}]}, {"compound": "[Ac-D-NaI^1,D-α-4-ClPhe^2,D-Pal^3,D-Arg^6, D-Ala^10]GnRH [antagonist 13]", "values": [{"measurement": "IC50", "setting": "human GnRHR [7]", "value": 6.7, "unit": "nM"}]}]}
